From US20150017115A1 (RAMOT AT TEL AVIV UNIVERSITY, published 2015) come the findings set out here.

Ends that are not written are not given here. CF = 5(6)-carboxyfluorescein

The experiment has as its target T1, Neural cell adhesion molecule (NCAM, CD56) (human, UniProt P13591 20-858).
T1 construct: whole, on cells
Kind of experiment: confocal microscopy of Saos-2 cells with fluorescently labeled peptide. As to the method:
Cell specificity and uptake of the fluorescently labeled peptides was monitored utilizing a Zeiss Meta LSM 510 confocal imaging system. Cells were plated on glass slides and incubated overnight. The following day cells were incubated with 100 μM of CF-NTP or CF-scrambled peptide for 30 minutes at 37° C., washed several times with PBS, fixated with 4% paraformaldehyde, stained with Hoechst stain and mounted on slides. In order to examine intracellular trafficking of the peptide, cells were incubated with the peptides in serum free medium, washed several times with cold PBS and incubated with […] AlexaFluor 594 human transferrin for 1 h at 37° C. Cells were washed several times with PBS, fixated with 4% PFA, stained with Hoechst stain and mounted on slides.
Binding of NTP (SEQ ID NO:1) to Saos-2 cells, compared to binding of sNTP (SEQ ID NO:2), was examined by confocal microscopy. FITC-labeled targeting peptides were used. […] In experiments with transferrin, peptide was seen as intracellular aggregates or vesicles, though not colocalized with transferrin.

T1 sequence (P13591 20-858): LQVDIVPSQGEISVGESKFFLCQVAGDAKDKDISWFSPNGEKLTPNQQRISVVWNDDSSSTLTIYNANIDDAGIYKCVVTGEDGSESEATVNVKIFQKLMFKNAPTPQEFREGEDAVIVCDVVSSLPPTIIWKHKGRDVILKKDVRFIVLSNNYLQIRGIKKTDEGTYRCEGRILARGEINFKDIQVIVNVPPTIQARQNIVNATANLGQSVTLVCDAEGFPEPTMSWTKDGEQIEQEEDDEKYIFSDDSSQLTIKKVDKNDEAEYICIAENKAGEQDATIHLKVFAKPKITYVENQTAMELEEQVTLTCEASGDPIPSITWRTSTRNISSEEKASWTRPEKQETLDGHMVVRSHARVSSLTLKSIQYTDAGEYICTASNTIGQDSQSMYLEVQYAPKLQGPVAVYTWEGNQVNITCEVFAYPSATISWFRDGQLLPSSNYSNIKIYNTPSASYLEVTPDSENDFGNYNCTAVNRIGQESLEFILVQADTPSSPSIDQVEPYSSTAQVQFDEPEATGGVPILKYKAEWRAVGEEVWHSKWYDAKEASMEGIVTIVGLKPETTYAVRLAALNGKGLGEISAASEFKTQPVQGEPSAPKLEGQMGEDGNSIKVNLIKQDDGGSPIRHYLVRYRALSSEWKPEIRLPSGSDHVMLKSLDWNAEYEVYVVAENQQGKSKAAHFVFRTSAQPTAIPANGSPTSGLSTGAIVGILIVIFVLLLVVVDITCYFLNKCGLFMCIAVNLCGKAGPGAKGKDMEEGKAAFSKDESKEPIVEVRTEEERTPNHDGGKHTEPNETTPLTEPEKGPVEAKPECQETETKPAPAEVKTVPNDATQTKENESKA

B1: scrambled NTP sequence (sNTP), fluorescein-labeled (peptide)
peptide: {CF}-GESDDEND
notes: also called scrambled peptide; CF-scrambled peptide
B1: the binding result is given as “no binding (tested: 100 µM)”.
